Reference: the supplement of paper PMC9112550, “Optimization of the antimicrobial peptide Bac7 by deep mutational scanning” (BMC Biology, 2022)

Tested on: Escherichia coli TOP10
Experiment: shrunken log2 fold change of peptide-encoding DNA abundance (4.5 h post-induction vs induction); higher = less antimicrobial activity (less host growth inhibition)
Details: time post-induction: 4.5 h; library: site-saturation at positions 5, 18, 19, 20
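Note: peptides expressed intracellularly from a pBAD plasmid library in pooled LB shake-flask culture, induced with 0.3% L-arabinose, DNA abundance read by NGS, three biological replicates, DESeq2 with apeglm shrinkage.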

| Sequence | shrunken log2 fold change |
| --- | --- |
| RRIRWRPPRLPRPRPRPMYKPRP | -0.0607 |
| RRIRWRPPRLPRPRPRPMYNPRP | -0.387 |
| RRIRWRPPRLPRPRPRPNAAPRP | 0.81 |
| RRIRWRPPRLPRPRPRPNCFPRP | -0.0571 |
| RRIRWRPPRLPRPRPRPNCRPRP | 0.0177 |
| RRIRWRPPRLPRPRPRPNDFPRP | -0.0161 |
| RRIRWRPPRLPRPRPRPNDMPRP | 0.199 |
| RRIRWRPPRLPRPRPRPNFVPRP | 0.292 |
| RRIRWRPPRLPRPRPRPNGSPRP | 0.0647 |
| RRIRWRPPRLPRPRPRPNIAPRP | -0.121 |
| RRIRWRPPRLPRPRPRPNIHPRP | -0.392 |
| RRIRWRPPRLPRPRPRPNIRPRP | -0.135 |
| RRIRWRPPRLPRPRPRPNKHPRP | -0.281 |
| RRIRWRPPRLPRPRPRPNKPPRP | -0.0749 |
| RRIRWRPPRLPRPRPRPNMWPRP | 0.0493 |
| RRIRWRPPRLPRPRPRPNPGPRP | 0.108 |
| RRIRWRPPRLPRPRPRPNPVPRP | -0.266 |
| RRIRWRPPRLPRPRPRPNQDPRP | 0.0957 |
| RRIRWRPPRLPRPRPRPNQGPRP | 0.0374 |
| RRIRWRPPRLPRPRPRPNQMPRP | -0.0159 |
| RRIRWRPPRLPRPRPRPNRHPRP | 0.0506 |
| RRIRWRPPRLPRPRPRPNRRPRP | 0.191 |
| RRIRWRPPRLPRPRPRPNTKPRP | -0.187 |
| RRIRWRPPRLPRPRPRPNVIPRP | -0.161 |
| RRIRWRPPRLPRPRPRPNVKPRP | -0.278 |

| Sequence | shrunken log2 fold change |
| --- | --- |
| RRIRWRPPRLPRPRPRPNWYPRP | -0.372 |
| RRIRWRPPRLPRPRPRPPATPRP | 1.06 |
| RRIRWRPPRLPRPRPRPPCIPRP | 0.0939 |
| RRIRWRPPRLPRPRPRPPDDPRP | 0.847 |
| RRIRWRPPRLPRPRPRPPDHPRP | 0.594 |
| RRIRWRPPRLPRPRPRPPDSPRP | 0.0564 |
| RRIRWRPPRLPRPRPRPPEDPRP | 0.235 |
| RRIRWRPPRLPRPRPRPPEHPRP | 0.544 |
| RRIRWRPPRLPRPRPRPPFDPRP | 0.445 |
| RRIRWRPPRLPRPRPRPPFEPRP | 0.765 |
| RRIRWRPPRLPRPRPRPPFHPRP | 0.0947 |
| RRIRWRPPRLPRPRPRPPFRPRP | 0.632 |
| RRIRWRPPRLPRPRPRPPFWPRP | 0.836 |
| RRIRWRPPRLPRPRPRPPGPPRP | 0.599 |
| RRIRWRPPRLPRPRPRPPIPPRP | 0.0875 |
| RRIRWRPPRLPRPRPRPPMDPRP | 0.0637 |
| RRIRWRPPRLPRPRPRPPPCPRP | 0.638 |
| RRIRWRPPRLPRPRPRPPPHPRP | 0.721 |
| RRIRWRPPRLPRPRPRPPQFPRP | -0.108 |
| RRIRWRPPRLPRPRPRPPQTPRP | 0.169 |
| RRIRWRPPRLPRPRPRPPSDPRP | 0.184 |
| RRIRWRPPRLPRPRPRPPSMPRP | 0.405 |
| RRIRWRPPRLPRPRPRPPSTPRP | 0.402 |
| RRIRWRPPRLPRPRPRPPTAPRP | 0.876 |
| RRIRWRPPRLPRPRPRPPTSPRP | 0.291 |

| Sequence | shrunken log2 fold change |
| --- | --- |
| RRIRWRPPRLPRPRPRPPVDPRP | 0.494 |
| RRIRWRPPRLPRPRPRPPVLPRP | 0.433 |
| RRIRWRPPRLPRPRPRPPVVPRP | 0.13 |
| RRIRWRPPRLPRPRPRPQCQPRP | 0.129 |
| RRIRWRPPRLPRPRPRPQDAPRP | -0.0395 |
| RRIRWRPPRLPRPRPRPQDRPRP | -0.0199 |
| RRIRWRPPRLPRPRPRPQEFPRP | 0.00161 |
| RRIRWRPPRLPRPRPRPQEHPRP | 0.0218 |
| RRIRWRPPRLPRPRPRPQGCPRP | 0.0267 |
| RRIRWRPPRLPRPRPRPQHHPRP | -0.475 |
| RRIRWRPPRLPRPRPRPQHNPRP | -0.537 |
| RRIRWRPPRLPRPRPRPQHQPRP | -0.142 |
| RRIRWRPPRLPRPRPRPQISPRP | -0.22 |
| RRIRWRPPRLPRPRPRPQKTPRP | 0.119 |
| RRIRWRPPRLPRPRPRPQKYPRP | -0.348 |
| RRIRWRPPRLPRPRPRPQMDPRP | -0.12 |
| RRIRWRPPRLPRPRPRPQNNPRP | -0.622 |
| RRIRWRPPRLPRPRPRPQNTPRP | 0.591 |
| RRIRWRPPRLPRPRPRPQPQPRP | 0.417 |
| RRIRWRPPRLPRPRPRPQQSPRP | -0.0166 |
| RRIRWRPPRLPRPRPRPQQVPRP | -0.00531 |
| RRIRWRPPRLPRPRPRPQRYPRP | 0.0066 |
| RRIRWRPPRLPRPRPRPQTIPRP | 0.106 |
| RRIRWRPPRLPRPRPRPQTQPRP | 0.516 |
| RRIRWRPPRLPRPRPRPQVIPRP | -0.127 |

| Sequence | shrunken log2 fold change |
| --- | --- |
| RRIRWRPPRLPRPRPRPQVQPRP | 0.115 |
| RRIRWRPPRLPRPRPRPQWCPRP | -0.0974 |
| RRIRWRPPRLPRPRPRPRASPRP | 0.852 |
| RRIRWRPPRLPRPRPRPRDDPRP | 0.341 |
| RRIRWRPPRLPRPRPRPRDGPRP | 1.12 |
| RRIRWRPPRLPRPRPRPRDSPRP | -0.299 |
| RRIRWRPPRLPRPRPRPREEPRP | 0.55 |
| RRIRWRPPRLPRPRPRPREPPRP | 0.35 |
| RRIRWRPPRLPRPRPRPRETPRP | 0.936 |
| RRIRWRPPRLPRPRPRPRGAPRP | 0.586 |
| RRIRWRPPRLPRPRPRPRGHPRP | 0.404 |
| RRIRWRPPRLPRPRPRPRGKPRP | 0.227 |
| RRIRWRPPRLPRPRPRPRGRPRP | 0.704 |
| RRIRWRPPRLPRPRPRPRHEPRP | -0.0681 |
| RRIRWRPPRLPRPRPRPRHIPRP | -0.0148 |
| RRIRWRPPRLPRPRPRPRIKPRP | 0.0187 |
| RRIRWRPPRLPRPRPRPRITPRP | 0.00862 |
| RRIRWRPPRLPRPRPRPRKSPRP | 0.264 |
| RRIRWRPPRLPRPRPRPRKTPRP | -0.0389 |
| RRIRWRPPRLPRPRPRPRLMPRP | 0.44 |
| RRIRWRPPRLPRPRPRPRLNPRP | 0.545 |
| RRIRWRPPRLPRPRPRPRLRPRP | 0.461 |
| RRIRWRPPRLPRPRPRPRMPPRP | 0.395 |
| RRIRWRPPRLPRPRPRPRMVPRP | 0.155 |
| RRIRWRPPRLPRPRPRPRNHPRP | -0.141 |

| Sequence | shrunken log2 fold change |
| --- | --- |
| RRIRWRPPRLPRPRPRPRNYPRP | -0.169 |
| RRIRWRPPRLPRPRPRPRPKPRP | 0.697 |
| RRIRWRPPRLPRPRPRPRPPPRP | 1.11 |
| RRIRWRPPRLPRPRPRPRQAPRP | 0.475 |
| RRIRWRPPRLPRPRPRPRQEPRP | 0.0591 |
| RRIRWRPPRLPRPRPRPRRIPRP | 0.109 |
| RRIRWRPPRLPRPRPRPRSKPRP | 0.118 |
| RRIRWRPPRLPRPRPRPRSMPRP | 0.0304 |
| RRIRWRPPRLPRPRPRPRTIPRP | -0.0129 |
| RRIRWRPPRLPRPRPRPRWTPRP | 0.386 |
| RRIRWRPPRLPRPRPRPSADPRP | 0.115 |
| RRIRWRPPRLPRPRPRPSAKPRP | 0.833 |
| RRIRWRPPRLPRPRPRPSDMPRP | -0.354 |
| RRIRWRPPRLPRPRPRPSDSPRP | -0.0671 |
| RRIRWRPPRLPRPRPRPSELPRP | 0.0129 |
| RRIRWRPPRLPRPRPRPSFDPRP | 0.0774 |
| RRIRWRPPRLPRPRPRPSFKPRP | -0.226 |
| RRIRWRPPRLPRPRPRPSFSPRP | -0.286 |
| RRIRWRPPRLPRPRPRPSFVPRP | -0.284 |
| RRIRWRPPRLPRPRPRPSGWPRP | 0.422 |
| RRIRWRPPRLPRPRPRPSHPPRP | -0.0699 |
| RRIRWRPPRLPRPRPRPSIHPRP | -0.319 |
| RRIRWRPPRLPRPRPRPSKEPRP | -0.267 |
| RRIRWRPPRLPRPRPRPSRWPRP | 0.209 |
| RRIRWRPPRLPRPRPRPSSAPRP | 0.443 |

| Sequence | shrunken log2 fold change |
| --- | --- |
| RRIRWRPPRLPRPRPRPSSHPRP | -0.248 |
| RRIRWRPPRLPRPRPRPSTVPRP | -0.362 |
| RRIRWRPPRLPRPRPRPSTWPRP | -0.148 |
| RRIRWRPPRLPRPRPRPSVSPRP | 0.104 |
| RRIRWRPPRLPRPRPRPSVWPRP | 0.218 |
| RRIRWRPPRLPRPRPRPTAPPRP | 0.481 |
| RRIRWRPPRLPRPRPRPTCAPRP | 0.868 |
| RRIRWRPPRLPRPRPRPTCKPRP | -0.0078 |
| RRIRWRPPRLPRPRPRPTDNPRP | -0.17 |
| RRIRWRPPRLPRPRPRPTEEPRP | 0.12 |
| RRIRWRPPRLPRPRPRPTEHPRP | -0.093 |
| RRIRWRPPRLPRPRPRPTEWPRP | 0.327 |
| RRIRWRPPRLPRPRPRPTFPPRP | 0.197 |
| RRIRWRPPRLPRPRPRPTIDPRP | -0.0862 |
| RRIRWRPPRLPRPRPRPTIIPRP | -0.348 |
| RRIRWRPPRLPRPRPRPTKMPRP | 0.344 |
| RRIRWRPPRLPRPRPRPTMSPRP | -0.065 |
| RRIRWRPPRLPRPRPRPTMVPRP | -0.299 |
| RRIRWRPPRLPRPRPRPTNHPRP | -0.245 |
| RRIRWRPPRLPRPRPRPTNIPRP | -0.509 |
| RRIRWRPPRLPRPRPRPTPKPRP | 0.627 |
| RRIRWRPPRLPRPRPRPTPPPRP | 0.639 |
| RRIRWRPPRLPRPRPRPTRTPRP | 0.83 |
| RRIRWRPPRLPRPRPRPTVMPRP | -0.374 |
| RRIRWRPPRLPRPRPRPTYKPRP | -0.467 |
